Legend:
Assay in all cases: cross-linking
[1] = molecular target: H3 (Drosophila (endogenous in S2 cells)) (UniProt P02299)
[2] = molecular target: T1, endogenous CID (Drosophila (endogenous in S2 cells)), Q9V6Q2; settings: remark: other sources report otherwise
T1 chain: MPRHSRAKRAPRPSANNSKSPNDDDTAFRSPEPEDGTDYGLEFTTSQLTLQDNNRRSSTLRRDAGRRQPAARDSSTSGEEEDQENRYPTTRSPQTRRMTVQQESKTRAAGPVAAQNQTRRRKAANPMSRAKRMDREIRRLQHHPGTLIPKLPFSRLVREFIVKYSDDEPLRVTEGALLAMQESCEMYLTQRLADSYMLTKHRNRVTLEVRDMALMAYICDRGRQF

[3] = molecular target: T2, FLAG-CID (N-terminally FLAG-tagged CID, wild type) (Drosophila), Q9V6Q2; settings: remark: other sources report otherwise
T2 chain: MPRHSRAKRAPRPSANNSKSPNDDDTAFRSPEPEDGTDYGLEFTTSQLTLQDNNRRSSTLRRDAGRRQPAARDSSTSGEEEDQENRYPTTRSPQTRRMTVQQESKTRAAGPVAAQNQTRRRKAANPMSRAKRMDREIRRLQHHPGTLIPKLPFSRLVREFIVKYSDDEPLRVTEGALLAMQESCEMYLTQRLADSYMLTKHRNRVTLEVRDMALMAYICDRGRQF

cross-linking = molecular target: the molecule itself

In the case of “H3 (from UniProt P02299 1-136) (natural protein)”, the stoichiometry N [1] is reported as 2.

B1: endogenous CID, Q9V6Q2 1-225 (natural protein)
chain: MPRHSRAKRAPRPSANNSKSPNDDDTAFRSPEPEDGTDYGLEFTTSQLTLQDNNRRSSTLRRDAGRRQPAARDSSTSGEEEDQENRYPTTRSPQTRRMTVQQESKTRAAGPVAAQNQTRRRKAANPMSRAKRMDREIRRLQHHPGTLIPKLPFSRLVREFIVKYSDDEPLRVTEGALLAMQESCEMYLTQRLADSYMLTKHRNRVTLEVRDMALMAYICDRGRQF
Molecule B1 has a stoichiometry N [2] of 2.

B2: FLAG-CID (N-terminally FLAG-tagged CID, wild type), Q9V6Q2 1-225 (natural protein)
chain: MPRHSRAKRAPRPSANNSKSPNDDDTAFRSPEPEDGTDYGLEFTTSQLTLQDNNRRSSTLRRDAGRRQPAARDSSTSGEEEDQENRYPTTRSPQTRRMTVQQESKTRAAGPVAAQNQTRRRKAANPMSRAKRMDREIRRLQHHPGTLIPKLPFSRLVREFIVKYSDDEPLRVTEGALLAMQESCEMYLTQRLADSYMLTKHRNRVTLEVRDMALMAYICDRGRQF
B2 showed a ratio dimer:monomer after crosslinking [3] greater than 55 and a stoichiometry N [3] of 2.

B3: FLAG-CID^D211A (natural protein, Drosophila, UniProt Q9V6Q2 1-225, looked up)
chain: MPRHSRAKRAPRPSANNSKSPNDDDTAFRSPEPEDGTDYGLEFTTSQLTLQDNNRRSSTLRRDAGRRQPAARDSSTSGEEEDQENRYPTTRSPQTRRMTVQQESKTRAAGPVAAQNQTRRRKAANPMSRAKRMDREIRRLQHHPGTLIPKLPFSRLVREFIVKYSDDEPLRVTEGALLAMQESCEMYLTQRLADSYMLTKHRNRVTLEVRAMALMAYICDRGRQF
With B3 the “ratio dimer:monomer after crosslinking” value (cross-linking) was less than 3.
